According to the supplement of paper PMC10126150:
± gives the standard deviation of the averaged measurements.

Tested on: ATP
Experiment: switch fluorescence ratio, 500 uM ATP over buffer (Cy3 cluster intensity, sum of 5 cycles each) (fold (ratio)); higher = stronger signal-on switching upon ATP binding; sequences stand for … in TCGTCGGCAGCGTCAGATGTGTATAAGAGACAGTTTTTTTTTTTTTTTTTTTTTTTTT…TC
Conditions: aptamer strand: ATP DNA aptamer (quencher-CACCTGGGGGAGTATTGCGGAGGAAGG + anchor), 100 nM annealed; ATP concentration: 500 uM
Procedure, shortened: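 The quencher-labelled ATP aptamer, at 100 nM, was annealed to Cy3-labelled switching-strand clusters on a modified Illumina MiSeq flow-cell. The clusters were imaged in selection buffer, then after 15 min with 500 uM ATP at 22 °C, and this buffer/ATP cycle ran five times with NaOH stripping and re-annealing between runs. Per-cluster fluorescence ratios, summed target-cycle over summed buffer-cycle Cy3 intensity, were averaged per switch-domain sequence. Clusters outside 100-1000 RFU were excluded.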
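Also: ATP exposure 15 min at 22 °C before imaging.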

Sequence	switch fluorescence ratio
GGGTGAGCGA	1.05 ± 0.064
TCGTCCTTTT	0.976 ± 0.03
CGGTGGGTTG	0.969 ± 0.053
TTCTTTTACT	1.01 ± 0.023
GAAAATAACG	1.11 ± 0.15
GTTTGGGTAA	0.99 ± 0.037
TGAGAGTTAT	1 ± 0.051
CGTTCCATTG	1 ± 0.012
TGCTTCTAAC	1.006 ± 0.0082
TTTCCGTTTC	1.06 ± 0.04
TTGGTGGTTG	0.993 ± 0.029
CTTAGGGTT	0.997 ± 0.044
GGGGTTACGG	0.996 ± 0.062
AGTAGGGTGG	0.991 ± 0.032
GGCTGGCACA	1.002 ± 0.0085
TCGAGTATGT	0.983 ± 0.012
GCAGACATAG	0.983 ± 0.025
TGTAAAAAT	1.01 ± 0.042
GAGTAGCATG	0.993 ± 0.022
TCGCCGCTAT	2.61 ± 0.34
TTCTTCGACA	1.08 ± 0.034
CGTATATTAA	0.975 ± 0.068
TGGGTTTGCG	0.982 ± 0.021
TCTATAATCG	0.977 ± 0.034
GCGGTGGGTT	0.9862 ± 0.0096
TGGGGGGGTA	0.991 ± 0.026

Sequence	switch fluorescence ratio
ATGGGGGAGC	0.981 ± 0.011
TAGAAGTTTG	0.976 ± 0.026
ATTGTATCAG	0.983 ± 0.027
TTATCTGCCT	1.06 ± 0.072
TTTGGGGAGC	0.986 ± 0.045
TGGATGTATT	1.28 ± 0.4
CGTCAATTGA	1.01 ± 0.036
GATCTTTCAT	1 ± 0.018
TCTCATAGTA	0.997 ± 0.047
CGGGGATTTG	0.976 ± 0.032
AAGTTCAGTA	0.9673 ± 0.0084
ATAGGAGTCG	1 ± 0.02
ACTTGCTATA	1.06 ± 0.029
GCAGGGACCC	1.12 ± 0.12
TTTGCTAAAT	1.02 ± 0.02
GGGTATGTAT	0.992 ± 0.027
GATGGGGATT	1.04 ± 0.069
AGTGGTTGTA	0.997 ± 0.024
GGGAAAATTT	1.07 ± 0.059
CCCTGAATTG	0.984 ± 0.053
ATTTAGGACT	0.978 ± 0.027
GCTGGTGCGA	1.005 ± 0.0099
ATTACGTAGC	1.428 ± 0.0063
GTGATTGTTT	1.009 ± 0.0091
GGGGGCGACT	0.978 ± 0.021
TTTAGGTTCG	0.972 ± 0.028

Sequence	switch fluorescence ratio
CTTATTCGAT	0.999 ± 0.012
TTCCAGTTT	1 ± 0.04
CTTACTAGC	1.02 ± 0.029
TTTAAACGGT	1.03 ± 0.042
GGGGGTAGTG	0.9946 ± 0.0063
ATCGACATAG	0.9985 ± 0.006
AAATGTGTGG	0.977 ± 0.019
TCGAACCGAG	1.2 ± 0.024
AAAGGGTAGT	0.9813 ± 0.0014
TAAGATTACA	1.017 ± 0.006
CTGGAATGGG	1.02 ± 0.056
TGGTTTAAAT	1.04 ± 0.054
ATGTAATATT	1.01 ± 0.033
AATAAACGGG	1.03 ± 0.015
AATCTAATTG	1.002 ± 0.0038
TAAAAAGGTA	1.02 ± 0.028
AATTGCCAGA	1.02 ± 0.02
GAGGGCACTG	0.956 ± 0.023
GCTAGGGCTT	1.01 ± 0.062
GTTTCTTAGC	0.998 ± 0.081
GTGTGAAGGC	1.03 ± 0.02
TCAGGGCAGC	1.01 ± 0.019
GACCTTGTGC	1.03 ± 0.042
TCGCAGTGGG	1.12 ± 0.034
GTTCGAACGA	0.9856 ± 0.001
